Reference: PMC3689823

Assays:
YFP-Clu (human) [1] = experiment: FRET or BRET; sensitized emission FRET in co-transfected HEK293T cells, CFP donor and YFP receptor, laser confocal microscope
YFP-Clu (human) [2] = experiment: FRET or BRET; receptor (acceptor) photobleaching FRET in co-transfected HEK293T cells, CFP donor and YFP receptor, bleached at 515 nm for 60 s

- FRET efficiency (YFP-Clu (human) [2]): 41.8%
Substance: CFP-SelR′ (from UniProt Q9NZV6 1-116) (enzyme)
- FRET efficiency (YFP-Clu (human) [1]): 40%
